The source of these data is patent publication US20230094463A1, “ANTIBODIES THAT DISRUPT THE INTERACTION OF GAL3 AND INSULIN RECEPTOR OR INTEGRINS AND METHODS OF USE THEREOF” (TrueBinding, Inc., priority 2019, published 2023).

Assay [1] addresses Human GAL3 protein (TrueBinding, QCB200349 / QCB200352; R&D Systems, 8259-GA) (human) (UniProt P17931). Description: blocking ELISA (GAL3 coated; antibody + biotinylated ITGaV). A general note: In an ELISA, binding on a coated surface is turned into a signal by an enzyme label.
Assay [2] shares this target. Put plainly: cell-based or functional assay.
The target is the same in assay [3]. Put plainly: blocking ELISA (GAL3 coated; antibody + biotinylated ITGb1).
Assay [4] has the same target. Put plainly: blocking ELISA (GAL3 coated; antibody + biotinylated ITGa3).
For assay [5] the target is unchanged. Put plainly: blocking ELISA (GAL3 coated; antibody + biotinylated ITGb3).
For inhibition of Jurkat T cell adhesion in this document: test concentration or dose not given here.

Chain of Human GAL3 protein (TrueBinding, QCB200349 / QCB200352; R&D Systems, 8259-GA) (human) (P17931 2-250 limits assumed): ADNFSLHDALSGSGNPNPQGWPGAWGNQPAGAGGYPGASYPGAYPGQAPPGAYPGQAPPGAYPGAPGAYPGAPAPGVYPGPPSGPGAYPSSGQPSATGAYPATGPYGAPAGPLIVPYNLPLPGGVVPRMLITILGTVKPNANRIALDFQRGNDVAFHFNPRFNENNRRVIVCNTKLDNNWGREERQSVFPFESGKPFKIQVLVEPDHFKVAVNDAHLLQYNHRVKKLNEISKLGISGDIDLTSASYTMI

B1: F849C.8D10 (antibody, V domains shown)
VH: QVQLQQTGAELVKPGASVKLSCKASGYTFTSYWINWVKQRPGQGLEWIGNIYPGSSSIYYSEKFKSKATLTVDTSSSTAYMQLSSLTSDDSAVYYCARWGYWGQGTTLTVSS
VL: DVLMTQTPLSLPVSLGDQASISCRSSQDIVHSSGNTYLEWYLQKPGQSLKLLIYKVSNRFSGVPDRFSASGSGTDFTLKISRVEAEDLGVYYCFQGSHVPPTFGSGTKLEIKR
In the case of B1, the percent blockade of GAL3-ITGaV interaction in assay [1] was more than 90%.

B2: 15F10.2D6 (antibody, V domains shown)
VH: EVQLVESGGGLVKPGGSLKLSCAASGFAFSSYAMSWVRQTPEKRLEWVATISDGGVYTYYTDHVKGRFTISRDNAEDNLYLQMSHLKSEDTAMYYCVRDGGYWGQGTTLTVSS
VL: DVLMTQTPLSLPVSLGDQASISCRSSQSIVHNNGNTYLEWYLQKPGQSPKLLIYKVSNRFSGVPDRFSGSGSGTDFTLKISRVEAEDLGVYYCFQGSHVPLTFGGGTKLELK
B2 yielded an inhibition of Jurkat T cell adhesion in assay [2] of 40 to 80%. In assay [3], the percent blockade of GAL3-ITGb1 interaction was in the range of 40 to 60%. The percent blockade of GAL3-ITGa3 interaction in assay [4] was more than 90%.

B3: 7D8.2D8 (antibody, V domains shown)
VH: EVQLVESGGGLVKPGGSLKLSCAASGFTFSSYAMSWVRQTPEKRLEWVATISDGGIYTYYPDNVKGRFTISRDNAKNNLFLQMSHLKSEDTAMYYCVRDGGYWGQGTTLTVSS
VL: DVLMTQTPLSLPVSLGDQASISCRSSQSIVHSNGNTYLEWYLQKPGQSPKLLIYKVSNRFSGVPDRFSGSGSGTDFTLKISRVEAEDLGVYYCFQGSHVPLTFGAGTKLELK
Turning to B3, in assay [2], the inhibition of Jurkat T cell adhesion is 40 to 80%. For the same molecule, the percent blockade of GAL3-ITGb1 interaction in assay [3] lay in the range of 40 to 60%. The percent blockade of GAL3-ITGa3 interaction in assay [4] is more than 90%.

B4: F846TC.14E4 (antibody, V domains shown)
VH: QVTLKESGPGILQPSQTLSLTCSFSGFSLSTSGMGVGWIRQPSGKGLEWLAHIWWDDDKYYNTALKSGLTISKDASKNQVFLKIASMDTADTATYYCARNLYDGSYGYYAMDYWGQGTSVTVSS
VL: DIVMTQAAFSNPVTLGTSASISCRSSKSLLHTNGITFLYWYLQKPGQSPQPLIYQMSNLASGVPDRFSSSGSGTDFTLRISRVEAEDVGVYYCAQNLELPWTFGGGTKLEINR
In turn, B4 returned an inhibition of Jurkat T cell adhesion in assay [2] of 40 to 80%. The percent blockade of GAL3-ITGb3 interaction in assay [5] was more than 90%. The percent blockade of GAL3-ITGa3 interaction in assay [4] was more than 90%.
